The subject of the assay is rat aortic rings. Kind of assay: Aorta ring assay (ex vivo). To be noted: VEGF-conditioned medium, GL equivalent 200 µM, 14 days. How it is done: An aorta ring assay was conducted to confirm the anti-angiogenesis effect of Lf-GL ex vivo. A 48-well plate was coated with of Matrigel® (100 μL) and was incubated for 30 min or more in 37℃ incubators. In the meantime, thoracic aortas of 7-week-old male SD rats were excised. Then, the fat layer and outer membrane were removed, and rings approximately 1 mm in length were prepared. The prepared aortic rings were seeded on a coated Matrigel® of 48-well plate and were covered with Matrigel®. (100 μL) Subsequently, the aortic ring was treated with a control (with or without 25 ng mL^−1 of VEGF) or different concentrations of Lf-GL complex. Medium was changed once every two days. Fourteen days after treatment, optical images of sprouting microvessels were obtained using microscopy magnification (× 40 or × 100). Sprouting microvessel area was quantified using Image J and Sigma Plot.
Fig. S14. Significant inhibitory effect of Lf-GL in aortic ring angiogenesis. Optical images of vessel regression in aortic ring with Lf-GL treatment. Aortic ring assay was carried out in 48-well plate coated with Matrigel. VEGF-non treated control represents that aortic ring incubated with normal medium. VEGF-treated control represents that aortic ring incubated with 25 ng mL^-1 VEGF-conditioned medium. […]

B1: Lf-GL: lactoferrin-glycyrrhizin conjugate with ligation ratio Lf:GL 1:10, used in further experiments (conjugate, UniProt P24627 20-708, looked up)
Lactotransferrin: APRKNVRWCTISQPEWFKCRRWQWRMKKLGAPSITCVRRAFALECIRAIAEKKADAVTLDGGMVFEAGRDPYKLRPVAAEIYGTKESPQTHYYAVAVVKKGSNFQLDQLQGRKSCHTGLGRSAGWIIPMGILRPYLSWTESLEPLQGAVAKFFSASCVPCIDRQAYPNLCQLCKGEGENQCACSSREPYFGYSGAFKCLQDGAGDVAFVKETTVFENLPEKADRDQYELLCLNNSRAPVDAFKECHLAQVPSHAVVARSVDGKEDLIWKLLSKAQEKFGKNKSRSFQLFGSPPGQRDLLFKDSALGFLRIPSKVDSALYLGSRYLTTLKNLRETAEEVKARYTRVVWCAVGPEEQKKCQQWSQQSGQNVTCATASTTDDCIVLVLKGEADALNLDGGYIYTAGKCGLVPVLAENRKSSKHSSLDCVLRPTEGYLAVAVVKKANEGLTWNSLKDKKSCHTAVDRTAGWNIPMGLIVNQTGSCAFDEFFSQSCAPGADPKSRLCALCAGDDQGLDKCVPNSKEKYYGYTGAFRCLAEDVGDVAFVKNDTVWENTNGESTADWAKNLNREDFRLLCLDGTRKPVTEAQSCHLAVAPNHAVVSRSDRAAHVKQVLLHQQALFGKNGKNCPDKFCLFKSETKNLLFNDNTECLAKLGGRPTYEEYLGTEYVTAIANLKKCSTSPLLEACAFLTR
modifications: glycyrrhizin conjugate
Turning to B1, the “Decrease of sprouted area of the micro-vessel” value turned out to be 80.2 ± 4.5%.

For the origin of these results see PMC10200060, “Inhibition of DAMP actions in the tumoral microenvironment using lactoferrin-glycyrrhizin conjugate for glioblastoma therapy” (Biomaterials Research, 2023).
